Starred links: 1 amine or outer side, 2 acyl side, 3 side chain; linkers in the order of their positions; H or OH if unused. Non-standard residues stand in square brackets, D forms with d. Groups on a side chain read outwards from the residue. Primed or numbered codes have the meaning given here. No end group written: not given here. *: point of attachment. γGlu = O=C(O)[C@H](CCC(=O)[*:2])N[*:1]; Stearoyl = CCCCCCCCCCCCCCCCCC(=O)*; αMeF = C[C@](N)(Cc1ccccc1)C(=O)O; αMeK = C[C@](N)(CCCCN)C(=O)O; αMeS = C[C@](N)(CO)C(=O)O; PEG2′ = not defined here; Aib = CC(C)(N)C(=O)O; Ahx = NCCCCCC(=O)O
B1: SEQ ID NO 158 (peptide)
peptide: H[Aib]EGS[αMeF]TSDV[αMeS]S[αMeF]LEGEAAK([Ahx-Stearoyl])E[αMeF]IA[αMeF]VV[αMeK]GG-NH2
modifications: N-terminus assumed
SMILES: CCCCCCCCCCCCCCCCCC(=O)NCCCCCC(=O)NCCCC[C@H](NC(=O)[C@H](C)NC(=O)[C@H](C)NC(=O)[C@H](CCC(=O)O)NC(=O)CNC(=O)[C@H](CCC(=O)O)NC(=O)[C@H](CC(C)C)NC(=O)[C@](C)(Cc1ccccc1)NC(=O)[C@H](CO)NC(=O)[C@](C)(CO)NC(=O)[C@@H](NC(=O)[C@H](CC(=O)O)NC(=O)[C@H](CO)NC(=O)[C@@H](NC(=O)[C@](C)(Cc1ccccc1)NC(=O)[C@H](CO)NC(=O)CNC(=O)[C@H](CCC(=O)O)NC(=O)C(C)(C)NC(=O)[C@@H](N)Cc1c[nH]cn1)[C@@H](C)O)C(C)C)C(=O)N[C@@H](CCC(=O)O)C(=O)N[C@@](C)(Cc1ccccc1)C(=O)N[C@H](C(=O)N[C@@H](C)C(=O)N[C@@](C)(Cc1ccccc1)C(=O)N[C@H](C(=O)N[C@H](C(=O)N[C@@](C)(CCCCN)C(=O)NCC(=O)NCC(N)=O)C(C)C)C(C)C)[C@@H](C)CC
B2: SEQ ID NO 159 (peptide)
peptide: H[Aib]EGS[αMeF]TSDV[αMeS]S[αMeF]LEGEAAK([Ahx-Ahx-Stearoyl])E[αMeF]IA[αMeF]VV[αMeK]GG-NH2
modifications: N-terminus assumed
SMILES: CCCCCCCCCCCCCCCCCC(=O)NCCCCCC(=O)NCCCCCC(=O)NCCCC[C@H](NC(=O)[C@H](C)NC(=O)[C@H](C)NC(=O)[C@H](CCC(=O)O)NC(=O)CNC(=O)[C@H](CCC(=O)O)NC(=O)[C@H](CC(C)C)NC(=O)[C@](C)(Cc1ccccc1)NC(=O)[C@H](CO)NC(=O)[C@](C)(CO)NC(=O)[C@@H](NC(=O)[C@H](CC(=O)O)NC(=O)[C@H](CO)NC(=O)[C@@H](NC(=O)[C@](C)(Cc1ccccc1)NC(=O)[C@H](CO)NC(=O)CNC(=O)[C@H](CCC(=O)O)NC(=O)C(C)(C)NC(=O)[C@@H](N)Cc1c[nH]cn1)[C@@H](C)O)C(C)C)C(=O)N[C@@H](CCC(=O)O)C(=O)N[C@@](C)(Cc1ccccc1)C(=O)N[C@H](C(=O)N[C@@H](C)C(=O)N[C@@](C)(Cc1ccccc1)C(=O)N[C@H](C(=O)N[C@H](C(=O)N[C@@](C)(CCCCN)C(=O)NCC(=O)NCC(N)=O)C(C)C)C(C)C)[C@@H](C)CC
B3: SEQ ID NO 156 (peptide)
peptide: H[Aib]EGS[αMeF]TSDV[αMeS]S[αMeF]LEGEAAK([γGlu-γGlu-Stearoyl])E[αMeF]IA[αMeF]VV[αMeK]GG-NH2
modifications: N-terminus assumed
SMILES: CCCCCCCCCCCCCCCCCC(=O)N[C@@H](CCC(=O)N[C@@H](CCC(=O)NCCCC[C@H](NC(=O)[C@H](C)NC(=O)[C@H](C)NC(=O)[C@H](CCC(=O)O)NC(=O)CNC(=O)[C@H](CCC(=O)O)NC(=O)[C@H](CC(C)C)NC(=O)[C@](C)(Cc1ccccc1)NC(=O)[C@H](CO)NC(=O)[C@](C)(CO)NC(=O)[C@@H](NC(=O)[C@H](CC(=O)O)NC(=O)[C@H](CO)NC(=O)[C@@H](NC(=O)[C@](C)(Cc1ccccc1)NC(=O)[C@H](CO)NC(=O)CNC(=O)[C@H](CCC(=O)O)NC(=O)C(C)(C)NC(=O)[C@@H](N)Cc1c[nH]cn1)[C@@H](C)O)C(C)C)C(=O)N[C@@H](CCC(=O)O)C(=O)N[C@@](C)(Cc1ccccc1)C(=O)N[C@H](C(=O)N[C@@H](C)C(=O)N[C@@](C)(Cc1ccccc1)C(=O)N[C@H](C(=O)N[C@H](C(=O)N[C@@](C)(CCCCN)C(=O)NCC(=O)NCC(N)=O)C(C)C)C(C)C)[C@@H](C)CC)C(=O)O)C(=O)O
B4: SEQ ID NO 160 (peptide)
peptide: H[Aib]EGS[αMeF]TSDV[αMeS]S[αMeF]LEGEAAK([Ahx-Ahx-Ahx-Stearoyl])E[αMeF]IA[αMeF]VV[αMeK]GG-NH2
modifications: N-terminus assumed
SMILES: CCCCCCCCCCCCCCCCCC(=O)NCCCCCC(=O)NCCCCCC(=O)NCCCCCC(=O)NCCCC[C@H](NC(=O)[C@H](C)NC(=O)[C@H](C)NC(=O)[C@H](CCC(=O)O)NC(=O)CNC(=O)[C@H](CCC(=O)O)NC(=O)[C@H](CC(C)C)NC(=O)[C@](C)(Cc1ccccc1)NC(=O)[C@H](CO)NC(=O)[C@](C)(CO)NC(=O)[C@@H](NC(=O)[C@H](CC(=O)O)NC(=O)[C@H](CO)NC(=O)[C@@H](NC(=O)[C@](C)(Cc1ccccc1)NC(=O)[C@H](CO)NC(=O)CNC(=O)[C@H](CCC(=O)O)NC(=O)C(C)(C)NC(=O)[C@@H](N)Cc1c[nH]cn1)[C@@H](C)O)C(C)C)C(=O)N[C@@H](CCC(=O)O)C(=O)N[C@@](C)(Cc1ccccc1)C(=O)N[C@H](C(=O)N[C@@H](C)C(=O)N[C@@](C)(Cc1ccccc1)C(=O)N[C@H](C(=O)N[C@H](C(=O)N[C@@](C)(CCCCN)C(=O)NCC(=O)NCC(N)=O)C(C)C)C(C)C)[C@@H](C)CC
B5: SEQ ID NO 155 (peptide)
peptide: H[Aib]EGS[αMeF]TSDV[αMeS]S[αMeF]LEGEAAK([γGlu-Stearoyl])E[αMeF]IA[αMeF]VV[αMeK]GG-NH2
modifications: N-terminus assumed
SMILES: CCCCCCCCCCCCCCCCCC(=O)N[C@@H](CCC(=O)NCCCC[C@H](NC(=O)[C@H](C)NC(=O)[C@H](C)NC(=O)[C@H](CCC(=O)O)NC(=O)CNC(=O)[C@H](CCC(=O)O)NC(=O)[C@H](CC(C)C)NC(=O)[C@](C)(Cc1ccccc1)NC(=O)[C@H](CO)NC(=O)[C@](C)(CO)NC(=O)[C@@H](NC(=O)[C@H](CC(=O)O)NC(=O)[C@H](CO)NC(=O)[C@@H](NC(=O)[C@](C)(Cc1ccccc1)NC(=O)[C@H](CO)NC(=O)CNC(=O)[C@H](CCC(=O)O)NC(=O)C(C)(C)NC(=O)[C@@H](N)Cc1c[nH]cn1)[C@@H](C)O)C(C)C)C(=O)N[C@@H](CCC(=O)O)C(=O)N[C@@](C)(Cc1ccccc1)C(=O)N[C@H](C(=O)N[C@@H](C)C(=O)N[C@@](C)(Cc1ccccc1)C(=O)N[C@H](C(=O)N[C@H](C(=O)N[C@@](C)(CCCCN)C(=O)NCC(=O)NCC(N)=O)C(C)C)C(C)C)[C@@H](C)CC)C(=O)O
B6: SEQ ID NO 157 (peptide)
peptide: H[Aib]EGS[αMeF]TSDV[αMeS]S[αMeF]LEGEAAK([γGlu-γGlu-γGlu-Stearoyl])E[αMeF]IA[αMeF]VV[αMeK]GG-NH2
modifications: N-terminus assumed
SMILES: CCCCCCCCCCCCCCCCCC(=O)N[C@@H](CCC(=O)N[C@@H](CCC(=O)N[C@@H](CCC(=O)NCCCC[C@H](NC(=O)[C@H](C)NC(=O)[C@H](C)NC(=O)[C@H](CCC(=O)O)NC(=O)CNC(=O)[C@H](CCC(=O)O)NC(=O)[C@H](CC(C)C)NC(=O)[C@](C)(Cc1ccccc1)NC(=O)[C@H](CO)NC(=O)[C@](C)(CO)NC(=O)[C@@H](NC(=O)[C@H](CC(=O)O)NC(=O)[C@H](CO)NC(=O)[C@@H](NC(=O)[C@](C)(Cc1ccccc1)NC(=O)[C@H](CO)NC(=O)CNC(=O)[C@H](CCC(=O)O)NC(=O)C(C)(C)NC(=O)[C@@H](N)Cc1c[nH]cn1)[C@@H](C)O)C(C)C)C(=O)N[C@@H](CCC(=O)O)C(=O)N[C@@](C)(Cc1ccccc1)C(=O)N[C@H](C(=O)N[C@@H](C)C(=O)N[C@@](C)(Cc1ccccc1)C(=O)N[C@H](C(=O)N[C@H](C(=O)N[C@@](C)(CCCCN)C(=O)NCC(=O)NCC(N)=O)C(C)C)C(C)C)[C@@H](C)CC)C(=O)O)C(=O)O)C(=O)O

What was measured:
Experiment in all cases: cell-based or functional assay
GLP-1 receptor (GLP-1R) = GLP-1 receptor (GLP-1R) (human, UniProt P43220 24-463)
glucagon receptor (GCGR) = glucagon receptor (GCGR) (human, UniProt P47871 26-477)
[1] = target: T1, glucose-dependent insulinotropic peptide (gastric inhibitory polypeptide) receptor (GIPR) (human, UniProt P48546 22-466)
T1 sequence (looked up): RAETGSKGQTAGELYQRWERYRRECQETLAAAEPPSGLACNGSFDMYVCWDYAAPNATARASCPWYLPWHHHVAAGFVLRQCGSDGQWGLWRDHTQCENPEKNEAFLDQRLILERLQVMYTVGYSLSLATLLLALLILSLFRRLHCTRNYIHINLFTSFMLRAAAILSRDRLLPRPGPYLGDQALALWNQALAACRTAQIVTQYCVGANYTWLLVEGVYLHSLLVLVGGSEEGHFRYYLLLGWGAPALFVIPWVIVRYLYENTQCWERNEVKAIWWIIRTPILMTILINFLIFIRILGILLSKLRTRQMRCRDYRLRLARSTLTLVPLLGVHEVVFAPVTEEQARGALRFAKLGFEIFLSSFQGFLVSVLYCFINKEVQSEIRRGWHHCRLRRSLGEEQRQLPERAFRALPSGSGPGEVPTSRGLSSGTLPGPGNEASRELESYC

Sequence of glucagon receptor (GCGR) (P47871 26-477): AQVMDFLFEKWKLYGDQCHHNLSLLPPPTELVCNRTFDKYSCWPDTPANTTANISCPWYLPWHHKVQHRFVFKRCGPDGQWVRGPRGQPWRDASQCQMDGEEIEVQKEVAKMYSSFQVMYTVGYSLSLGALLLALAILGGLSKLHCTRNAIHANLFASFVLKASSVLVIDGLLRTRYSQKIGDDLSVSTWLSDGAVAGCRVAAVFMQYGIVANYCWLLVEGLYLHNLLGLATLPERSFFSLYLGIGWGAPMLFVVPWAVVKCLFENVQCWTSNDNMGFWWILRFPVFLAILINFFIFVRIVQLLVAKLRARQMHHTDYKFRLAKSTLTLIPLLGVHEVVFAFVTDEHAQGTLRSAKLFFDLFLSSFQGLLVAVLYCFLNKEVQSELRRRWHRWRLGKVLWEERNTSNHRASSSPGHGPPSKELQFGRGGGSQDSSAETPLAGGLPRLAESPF

Row | Binder | Primary assay EC50 (cAMP), GLP-1R n1 (GLP-1 receptor (GLP-1R)) [nM] | Primary assay EC50 (cAMP), GLP-1R n2 (GLP-1 receptor (GLP-1R)) [nM] | Primary assay EC50 (cAMP), Mean pM GLP-1R (GLP-1 receptor (GLP-1R)) [pM] | Primary assay EC50 (cAMP), Gluc-R, first run (glucagon receptor (GCGR)) [nM] | Primary assay EC50 (cAMP), Gluc-R, second run (glucagon receptor (GCGR)) [nM] | Primary assay EC50 (cAMP), GIP-R, first run [1] [nM] | Primary assay EC50 (cAMP), GIP-R, second run [1] [nM]
1 | B1 | 0.14 | 0.16 | 148 | 28 | 28 | 28 | 28
2 | H[Aib]EGS[αMeF]TSDV[αMeS]S[αMeF]LEGEAAK([PEG2′-PEG2′-PEG2′-Stearoyl])E[αMeF]IA[αMeF]VV[αMeK]GG-NH2 [SEQ ID NO 154] | 0.0028 | 0.0023 | 2.5 | 26 | 26 | 26 | 26
3 | B2 | 0.28 | 0.23 | 254 | 27 | 27 | 27 | 27
4 | B3 | 0.11 | 0.1 | 105 | 27 | 27 | 27 | 27
5 | B4 | 0.39 | 0.32 | 350 | 26 | 26 | 26 | 26
6 | B5 | 0.29 | 0.19 | 238 | 28 | 28 | 28 | 28
7 | B6 | 0.24 | 0.22 | 227 | 26 | 26 | 26 | 26
